Among the data in US20220089772A1 (published 2022) are Kd values, retold here.

Experiment [1] concerns the target T1, Human glycopeptide (biotinylated) (biotinylated; glycosylated (glycan and sites not stated)).
T1 peptide: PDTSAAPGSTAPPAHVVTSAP
In words: SPR; avid; apparent KD, FIG. 19A. (In general: In SPR one partner is held on a chip, and binding of the other changes the refractive index at the surface.)

In experiment [2] the target is T2, Cynomolgus glycopeptide (biotinylated) (biotinylated; glycosylated (glycan and sites not stated)).
T2 peptide: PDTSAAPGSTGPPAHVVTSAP
Put plainly: SPR; avid; apparent KD, FIG. 19B.

B1: monoclonal antibody GO2 (5F7) (antibody, V domains shown)
VH: QVQLQQSDAELVKPGASVKISCKASGYTFTDHAIHWVKQRPEQGLEWIGYFSPGNDDIHYNEKFEGKATLTADKSSSTAYMQLNSLTSEDSAVYFCKRSYDKDFDCWGQGTTLTVSS
VL: DIVMSQSPSSLGVSVGEKVTMSCKSSQSLLYSTNQKNYLAWYQQKPGQSPKLLIYWVSNRKSGVPDRFTGSGSGTDFTLTISSVKAEDLAVYYCQQYYRYPLTFGAGTKLELK
For B1, the Kd in experiment [1] was 253 nM; in experiment [2], 56 nM.
